Data reported in patent publication US20140242068A1 (EMORY UNIVERSITY, published 2014).

T1: JAMA-GST (UniProt Q9Y624 28-238, limits assumed)
T1 construct: Construct not described; not shown: GST tag
T1 sequence (looked up): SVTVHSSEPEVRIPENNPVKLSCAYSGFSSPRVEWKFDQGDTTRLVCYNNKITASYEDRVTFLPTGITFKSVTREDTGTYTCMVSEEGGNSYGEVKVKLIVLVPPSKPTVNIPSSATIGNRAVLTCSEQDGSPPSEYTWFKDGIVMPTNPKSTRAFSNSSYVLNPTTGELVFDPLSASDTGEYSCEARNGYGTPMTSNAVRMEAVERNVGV

T2: EVA-His (UniProt O60487 27-154, limits assumed)
T2 construct: Construct not described; also called EVA1; not shown: His tag
T2 sequence (looked up): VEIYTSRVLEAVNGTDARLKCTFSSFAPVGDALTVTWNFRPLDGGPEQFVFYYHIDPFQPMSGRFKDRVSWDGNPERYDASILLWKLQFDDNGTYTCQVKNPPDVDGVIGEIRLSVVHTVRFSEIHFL

T3: JAMA-Fc (UniProt Q9Y624 28-238, limits assumed)
T3 construct: the construct is not described; not shown: Fc tag
T3 sequence (looked up): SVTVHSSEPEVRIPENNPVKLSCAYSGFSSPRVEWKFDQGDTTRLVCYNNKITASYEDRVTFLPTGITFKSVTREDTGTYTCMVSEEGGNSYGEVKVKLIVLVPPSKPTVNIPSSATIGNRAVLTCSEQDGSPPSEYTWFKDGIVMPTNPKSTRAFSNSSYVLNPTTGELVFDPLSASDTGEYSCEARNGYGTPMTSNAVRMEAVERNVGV

T4: CLMP-Fc (UniProt Q9H6B4 19-235, limits assumed)
T4 construct: Construct not described; also called CAR-like membrane protein; not shown: Fc tag
T4 sequence (looked up): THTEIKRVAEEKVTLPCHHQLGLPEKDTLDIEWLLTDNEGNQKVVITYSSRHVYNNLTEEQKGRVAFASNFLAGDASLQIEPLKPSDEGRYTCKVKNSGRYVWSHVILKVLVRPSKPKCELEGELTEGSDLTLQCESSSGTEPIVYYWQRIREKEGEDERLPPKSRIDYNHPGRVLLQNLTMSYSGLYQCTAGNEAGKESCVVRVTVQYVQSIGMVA

T5: JAMC_Fc (UniProt Q9BX67 32-241, limits assumed)
T5 construct: Construct not described; not shown: Fc tag
T5 sequence (looked up): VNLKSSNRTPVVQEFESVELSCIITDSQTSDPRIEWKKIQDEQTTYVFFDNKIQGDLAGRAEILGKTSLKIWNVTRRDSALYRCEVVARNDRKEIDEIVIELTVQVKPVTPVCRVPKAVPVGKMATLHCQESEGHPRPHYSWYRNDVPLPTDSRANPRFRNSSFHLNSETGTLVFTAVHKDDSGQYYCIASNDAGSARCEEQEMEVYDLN

T6: purified extracellular domain of CAR tagged with GST (CAR-GST) (UniProt P78310 20-237, limits assumed)
T6 construct: extracellular domain; also called soluble CAR; sCAR; not shown: GST tag
T6 sequence (looked up): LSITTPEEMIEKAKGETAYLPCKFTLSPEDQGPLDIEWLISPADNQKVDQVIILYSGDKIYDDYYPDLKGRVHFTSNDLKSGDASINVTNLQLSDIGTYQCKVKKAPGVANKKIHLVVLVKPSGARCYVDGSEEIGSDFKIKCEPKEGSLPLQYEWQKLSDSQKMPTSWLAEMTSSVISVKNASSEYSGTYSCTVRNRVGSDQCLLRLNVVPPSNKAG

T7: JAMA on CHO cells (CHO-JAMA transfectants) (UniProt Q9Y624 28-299, limits assumed)
T7 construct: whole, on cells; Construct not described
T7 sequence (looked up): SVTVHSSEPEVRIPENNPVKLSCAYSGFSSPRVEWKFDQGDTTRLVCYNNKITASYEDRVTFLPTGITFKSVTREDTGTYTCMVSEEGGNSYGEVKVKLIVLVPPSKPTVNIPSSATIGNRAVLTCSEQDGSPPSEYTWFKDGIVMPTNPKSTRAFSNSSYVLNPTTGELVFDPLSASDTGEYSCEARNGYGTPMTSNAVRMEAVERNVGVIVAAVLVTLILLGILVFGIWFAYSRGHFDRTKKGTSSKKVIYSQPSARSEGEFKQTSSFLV


Key:
[1] = biological target: T1, JAMA-GST; experiment: ELISA, antigen coated at 5 µg/ml
[2] = biological target: T2, EVA-His; experiment: ELISA, antigen coated at 5 µg/ml
[3] = biological target: T3, JAMA-Fc; experiment: ELISA, antigen coated at 5 µg/ml
[4] = biological target: T4, CLMP-Fc; experiment: ELISA, antigen coated at 5 µg/ml
[5] = biological target: T8, SIRPA-HIS (UniProt P78324 31-370, limits assumed); experiment: ELISA, antigen coated at 5 µg/ml
T8 construct: Construct not described; not shown: His tag

[6] = biological target: BSA (UniProt P02769 25-607); experiment: ELISA, antigen coated at 5 µg/ml
[7] = biological target: T5, JAMC_Fc; experiment: ELISA, antigen coated at 5 µg/ml
[8] = biological target: T6, purified extracellular domain of CAR …; experiment: ELISA, antigen coated at 5 µg/ml
[9] = biological target: T7, JAMA on CHO cells (CHO-JAMA …); experiment: staining of CHO-JAMA transfectants

T8 sequence (P78324 31-370 limits assumed): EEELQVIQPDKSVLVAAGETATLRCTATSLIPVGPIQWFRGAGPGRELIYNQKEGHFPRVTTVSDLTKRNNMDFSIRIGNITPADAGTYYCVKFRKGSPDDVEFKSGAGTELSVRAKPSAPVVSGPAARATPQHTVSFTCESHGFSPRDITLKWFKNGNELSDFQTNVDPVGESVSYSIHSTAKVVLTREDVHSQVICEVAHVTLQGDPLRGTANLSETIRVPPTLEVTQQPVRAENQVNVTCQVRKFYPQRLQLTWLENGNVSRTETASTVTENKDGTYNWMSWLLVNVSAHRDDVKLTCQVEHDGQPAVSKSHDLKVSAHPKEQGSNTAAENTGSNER
Sequence of BSA (P02769 25-607 limits assumed): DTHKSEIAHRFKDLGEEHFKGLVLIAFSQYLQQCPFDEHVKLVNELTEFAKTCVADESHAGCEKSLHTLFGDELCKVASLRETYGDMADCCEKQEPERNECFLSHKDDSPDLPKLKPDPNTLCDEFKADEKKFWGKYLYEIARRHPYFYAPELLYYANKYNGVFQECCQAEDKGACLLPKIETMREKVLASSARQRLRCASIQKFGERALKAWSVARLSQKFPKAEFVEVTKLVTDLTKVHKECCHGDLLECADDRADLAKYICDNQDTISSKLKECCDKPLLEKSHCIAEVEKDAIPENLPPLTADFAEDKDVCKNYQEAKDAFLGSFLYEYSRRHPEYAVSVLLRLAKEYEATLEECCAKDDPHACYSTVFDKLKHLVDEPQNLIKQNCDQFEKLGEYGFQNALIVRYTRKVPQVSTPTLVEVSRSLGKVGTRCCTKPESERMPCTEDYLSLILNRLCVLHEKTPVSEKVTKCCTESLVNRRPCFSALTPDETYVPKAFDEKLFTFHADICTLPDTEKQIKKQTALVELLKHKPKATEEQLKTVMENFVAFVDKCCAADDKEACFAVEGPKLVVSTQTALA

binding result [1]	binding result [2]	binding result [3]	binding result [4]	binding result [5]	binding result [6]	binding result [7]	binding result [8]	binding result [9]	Binder
no binding (tested: antibody 10 µg/ml)	no binding (tested: antibody 10 µg/ml)	no binding (tested: antibody 10 µg/ml)	no binding (tested: antibody 10 µg/ml)	no binding (tested: antibody 10 µg/ml)	no binding (tested: antibody 10 µg/ml)	no binding (tested: antibody 10 µg/ml)	no binding (tested: antibody 10 µg/ml)	no binding	DW216 (antibody, IgG1, V domains shown, also called DW216 mAb; H3L3) VH: DVQLVESGPGLVKPSQSLSLTCTVTGYSITSDYAWNWIRQFPGNKLEWMGYISSSGNSNYNPSLKSRISITRDTSKNQFFLQLNSVTTEDTATYYCAGATGYSMDYWGQGTTLTVK VL: VLTQSPAIMSASLGERVTMTCTASSSVSSSYLHWYQQKPGSSPKLWIYSTSNLASGVPARFSGSGSGTSYSLTISSMEAEDAATYYCHQYHRSPFTFGSGTKLELK
no binding (tested: antibody 10 µg/ml)	no binding (tested: antibody 10 µg/ml)	no binding (tested: antibody 10 µg/ml)	no binding (tested: antibody 10 µg/ml)	no binding (tested: antibody 10 µg/ml)	no binding (tested: antibody 10 µg/ml)	no binding (tested: antibody 10 µg/ml)	no binding (tested: antibody 10 µg/ml)	no binding	DW100 (antibody, IgG1, V domains shown, also called DW100 mAb; anti-JAML monoclonal antibody DW100) VH: DVQLVESGAELVRPGASVKLSCKALAYTFTDYEMHWVKQTPVHGLEWIGIIHPGSGGTVYNQKFKGKATLTADKSSSTAYMELSSLTSEDSTVYYCTRRRYYGSSYWYFDVWGAGN VL: VLTQSPASLAASVGETVTITCRASENIYYSLAWYQQKQGKSPQLLIYNANSLEDGVPSRFSGSGSGTQYSLKINSMQPEDTATYFCEQTYDVPLTFGAGTKLEL
